This note sets out measurements from US20240052036A1 (Merck Sharp & Dohme, published 2024).

This assay concerns the target T1, recombinant human LAG-3 (rhLAG-3) (human, UniProt P18627 23-450, limits assumed).
T1 construct: also called CD223
T1 sequence (looked up): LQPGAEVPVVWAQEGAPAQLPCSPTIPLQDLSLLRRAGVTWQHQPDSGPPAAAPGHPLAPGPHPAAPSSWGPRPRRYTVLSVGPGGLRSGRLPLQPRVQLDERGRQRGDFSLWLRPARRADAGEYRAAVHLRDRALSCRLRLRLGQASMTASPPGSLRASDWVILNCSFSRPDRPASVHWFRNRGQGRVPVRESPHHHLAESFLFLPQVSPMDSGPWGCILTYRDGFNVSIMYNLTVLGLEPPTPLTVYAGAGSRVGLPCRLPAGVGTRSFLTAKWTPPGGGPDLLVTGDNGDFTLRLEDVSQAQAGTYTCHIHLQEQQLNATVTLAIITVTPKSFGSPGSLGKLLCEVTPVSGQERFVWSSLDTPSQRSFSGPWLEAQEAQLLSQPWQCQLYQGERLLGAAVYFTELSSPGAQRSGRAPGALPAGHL
Kind of assay: binding ELISA, immobilized rhLAG-3, 4-parameter fit, relative potency. The protocol:
The potency assay assesses anti-LAG3 activity in Formulation A through anti-LAG3 binding to immobilized recombinant human LAG-3 (rhLAG-3). Dose response curves were generated by using serial dilutions of anti-LAG3 reference material and test samples. […] Relative potency was calculated by applying Parallel Line Analysis of dose-response curves in SoftMax® Pro. Potency of a test sample was reported as geometric mean potency relative to the reference material with a geometric standard deviation and 95% confidence interval.
For orientation: In an ELISA, binding on a coated surface is turned into a signal by an enzyme label.

B1: anti-LAG3 antibody (SEQ ID NOs: 35 and 57, light and heavy chains) (antibody, human IgG4 S228P, kappa, V domains shown)
VH: QMQLVQSGPEVKKPGTSVKVSCKASGYTFTDYNVDWVRQARGQRLEWIGDINPNDGGTIYAQKFQERVTITVDKSTSTAYMELSSLRSEDTAVYYCARNYRWFGAMDHWGQGTTVTVSS
VL: DIVMTQTPLSLSVTPGQPASISCKASQSLDYEGDSDMNWYLQKPGQPPQLLIYGASNLESGVPDRFSGSGSGTDFTLKISRVEAEDVGVYYCQQSTEDPRTFGGGTKVEIKR
notes: Tested in Formulation A (25 mg/mL antibody, 50 mg/mL sucrose, 0.2 mg/mL polysorbate 80, 10 mM histidine pH 5.8, 70 mM L-arginine-HCl); also called Ab6; anti-LAG3 drug product
In the case of B1, the binding result is on record as “binds”.
